Drawing on paper PMC2912413, this text covers percent decrease of the ELISA interaction compared to RPA for one substance.

For this assay, the target named is alternative Replication Protein A complex (RPA1, RPA4 and RPA3) (human) (UniProt P27694). In words: ELISA. For orientation: In an ELISA, binding on a coated surface is turned into a signal by an enzyme label.
Chain of alternative Replication Protein A complex (RPA1, RPA4 and RPA3) (human) (P27694 whole entry, chain 1 of 3): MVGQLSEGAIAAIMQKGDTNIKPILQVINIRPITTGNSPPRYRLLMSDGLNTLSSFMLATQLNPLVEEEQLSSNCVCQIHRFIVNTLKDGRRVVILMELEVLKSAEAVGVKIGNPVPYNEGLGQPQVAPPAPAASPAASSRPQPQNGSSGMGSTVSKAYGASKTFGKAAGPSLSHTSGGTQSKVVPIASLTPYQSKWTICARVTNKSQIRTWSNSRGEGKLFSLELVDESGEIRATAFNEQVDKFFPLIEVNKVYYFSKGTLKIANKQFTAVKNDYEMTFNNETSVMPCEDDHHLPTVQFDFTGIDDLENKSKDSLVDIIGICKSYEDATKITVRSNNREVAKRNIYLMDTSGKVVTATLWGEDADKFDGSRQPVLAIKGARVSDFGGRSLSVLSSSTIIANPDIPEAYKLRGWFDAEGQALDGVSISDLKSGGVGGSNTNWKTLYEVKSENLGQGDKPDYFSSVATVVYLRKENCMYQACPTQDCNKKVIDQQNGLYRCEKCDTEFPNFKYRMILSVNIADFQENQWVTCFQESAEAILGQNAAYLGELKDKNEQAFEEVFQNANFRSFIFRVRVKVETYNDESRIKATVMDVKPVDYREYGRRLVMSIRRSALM
Chain of alternative Replication Protein A complex (RPA1, RPA4 and RPA3) (human) (Q13156 whole entry, chain 2 of 3, further chain): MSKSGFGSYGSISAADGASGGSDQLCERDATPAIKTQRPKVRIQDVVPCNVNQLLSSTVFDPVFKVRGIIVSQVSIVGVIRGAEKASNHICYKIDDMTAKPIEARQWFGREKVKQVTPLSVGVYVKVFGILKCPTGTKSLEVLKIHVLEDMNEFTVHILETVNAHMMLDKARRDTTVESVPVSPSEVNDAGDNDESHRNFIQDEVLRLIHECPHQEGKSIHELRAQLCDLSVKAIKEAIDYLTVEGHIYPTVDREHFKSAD
Chain of alternative Replication Protein A complex (RPA1, RPA4 and RPA3) (human) (P35244 whole entry, chain 3 of 3, further chain): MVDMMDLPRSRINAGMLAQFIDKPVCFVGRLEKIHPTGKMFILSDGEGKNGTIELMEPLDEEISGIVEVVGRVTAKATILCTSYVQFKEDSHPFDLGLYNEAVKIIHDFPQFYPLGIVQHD

The substance “human DNA polymerase α/primase complex (from UniProt P09884 1-1462; Q14181 1-598; P49643 1-509; P49642 1-420)” returned a percent decrease of the ELISA interaction compared to RPA of 75%.
